Assay results reported in paper doi:10.1101/239830.
pKd: −log10 of the molar value.

How the values were obtained:
Assay in all cases: fluorescence polarisation
[1] = biological target: OR-1 peptide derived from olfactory receptor OLFR1507
[2] = biological target: V1rb2-1 peptide derived from vomeronasal receptor V1RB2
[3] = biological target: V1rb2-2 peptide derived from vomeronasal receptor V1RB2

Substance: PERK LD as used in the fluorescence anisotropy assays (domain or fragment)
- pKd [1]: 3.60
- pKd [2]: 5.18
- pKd [3]: 5.21
